Paper doi:10.1101/2024.10.24.620088
Where “and” joins values, the source holds several entries; their conditions need not be identical. Equal entries are not always repeated. Where two headings read alike, the source gives them in different places.

Assays:
Test in all cases: cryo-EM structure
[1] = molecular target: DUF4297 from Bacillus ap. HMH5848 (Bacillus ap. HMH5848)
[2] = molecular target: DUF4297 from Bacillus ap. HMH5848 (Bacillus ap. HMH5848); remark: listed apart in the source
[3] = molecular target: HerA from Bacillus ap. HMH5848 (Bacillus ap. HMH5848)
[4] = molecular target: HerA from Bacillus ap. HMH5848 (Bacillus ap. HMH5848); remark: listed apart in the source

| Substance | stoichiometry N [1] | stoichiometry N [2] | stoichiometry N [3] | stoichiometry N [4] |
| --- | --- | --- | --- | --- |
| DUF4297 from Bacillus ap. HMH5848 (natural protein) | 12 | 12 and 4 and 6 |  |  |
| HerA from Bacillus ap. HMH5848 (enzyme) |  |  | 6 | 6 |
